One data set has as its target T1, cjRecR (Campylobacter jejuni, UniProt Q9PN35 1-190).
T1 sequence: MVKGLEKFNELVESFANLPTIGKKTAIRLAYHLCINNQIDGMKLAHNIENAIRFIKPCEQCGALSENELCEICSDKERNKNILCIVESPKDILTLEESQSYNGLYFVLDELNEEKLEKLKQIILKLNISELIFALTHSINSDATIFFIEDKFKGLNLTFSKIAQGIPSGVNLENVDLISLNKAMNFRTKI
Put plainly: fluorescence polarization; Fluorescence polarization: 0.8 nM fluorescein 40-mer ssDNA, protein up to 100 uM, one-site fit; buffer, salt, pH and temperature not stated. The following applies: protein: recombinant; tags: His6 tag removed with thrombin; chain copies: 4; single strand. (In general: Polarisation of emitted light reports the rotation of a fluorescent probe.)

Data set [1] deals with the molecule itself. Put plainly: crystal structure; crystal of cjRecR (residues 1-190), four subunits in the asymmetric unit; sitting drop, 18 °C, 17% ethanol, 0.1 M Hepes pH 7.5, 0.25 M magnesium chloride; 2.6 Å.
Data set [2] deals with the molecule itself. Put plainly: SEC; cjRecR alone (~300 μg in 300 μL), Superdex 200 10/300, 20 mM Tris pH 8.0, 150 mM NaCl, 5 mM βME; size against gel-filtration standards.

Usually Kd stands for the free concentration of one partner at which half of the binding sites on the other are occupied at equilibrium, for simple one-to-one binding. Take TTATAGGCATATAGGAGTAATTTTCTTGGGCTATGCAGTA (ssDNA) [40-mer ssDNA]: in the data set with cjRecR, the Kd was 6.8 µM.

B1: Campylobacter jejuni RecR (natural protein, UniProt Q9PN35 1-190, looked up)
chain: T1 sequence
notes: RecR of Campylobacter jejuni subsp. jejuni (ATCC 33291), residues 1-190; cloned by PCR from genomic DNA; Expressed from a pET49b variant with an N-terminal hexahistidine tag and a thrombin site; Residues 1-189 are seen in the structure; also called cjRecR; source: E. coli BL21 (DE3), purified (Ni-NTA, thrombin cleavage, Mono Q anion exchange); not shown: His6, N-terminal, cleaved
A word on the stoichiometry N: it is a count of units in the complex or per binding partner. On to B1, for which the “stoichiometry N” value in data set [1] amounted to 4; in data set [2] it was 2.

The record behind these values is article PMC10454854, “Structural and Biochemical Analysis of the Recombination Mediator Protein RecR from Campylobacter jejuni” (International Journal of Molecular Sciences, 2023).
